Several values for one entry are separate records, joined by “and”; a condition that tells them apart may be missing. Identical values can stand only once.

What is called Kd is the free concentration of one partner at which half of the binding sites on the other are occupied at equilibrium, for simple one-to-one binding. Higher therefore signals weaker binding.

One assay concerns the target T1, Cx43CT Y313D (rat, UniProt P08050 236-382, Y313D, 15N-labelled).
T1 construct: Connexin43 (Cx43), rat, carboxyl-terminal domain, residues V236-I382, with the phosphomimetic Y313D; The mutation was put into 'the Cx43CT plasmid'; also called single phosphomimetic; source: bacterial expression vector pGEX-6P-2, expressed and purified in 1x PBS as previously described
Briefly: NMR titration; 15N-HSQC at 7 °C; 15N-labelled Cx43CT (WT, Y313D or Y265,313D) at constant 35 μM, unlabelled β-catenin, β-catenin CT or β-catenin ΔCT added up to 285 μM; 1x PBS pH 7.8, 2 mM dithiothreitol; KD from the fit of the decrease in signal intensity. As to conditions: both partners purified.

Assay [1] concerns the target T2, Connexin43 carboxyl-terminal domain (V236–I382) (rat, UniProt P08050 236-382, 15N-labelled).
T2 construct: Connexin43 (Cx43), rat, carboxyl-terminal domain, residues V236-I382; pGEX-6P-2 carries a PreScission site, so GST was probably cleaved (surmise); also called Cx43CT; Cx43CT WT; source: bacterial expression vector pGEX-6P-2, expressed and purified in 1x PBS as previously described
The description is as above. As to conditions: both partners purified.

B1: β-catenin carboxyl-terminal (CT) domain (S681–L781) (domain or fragment, human, UniProt P35222 681-781, looked up)
chain: SLFRTEPMAWNETADLGLDIGAQGEPLGYRQDDPSYRSFHSGGYGQDALGMDPMMEHEMGGHHPGADYPVDGLPDLGHAQDLMDGLPPGDSNQLAWFDTDL
notes: β-catenin, human, C-terminal domain, residues S681-L781; also called β-catenin CT; β-catenin CT domain
Turning to B1, the dissociation constant (Kd) with Cx43CT Y313D was 341 µM; in assay [1], 210 µM and 202 µM.

Values taken from publication PMC6032326, “Connexin43 Carboxyl-Terminal Domain Directly Interacts with β-Catenin” (International Journal of Molecular Sciences, 2018).
